The text below walks through data of patent US11827701B2, “IL-6 binding molecules” (argenx BV, priority 2012, dated 2023).

Several values for one entry are separate records, joined by “and”; a condition that tells them apart may be missing. Identical values can stand only once.

In assay [1] the target is T1, human IL-6 (Homo sapiens, UniProt P05231).
T1 construct: host or cells: IL-6 added from outside to murine 7TD1 hybridoma cells
The experiment in a line: IL-6 neutralizing bioassay, 7TD1 cell proliferation. Type of assay: cell-based. To be noted: relative to 68F2. Here is the method: The in vitro efficacy of clones 133E5, 133A9, 133H2, 111B1, 104C1, 129D3, 68F2, 61H7, were also determined using a cell-based neutralizing bioassay using the 7TD1 cell line, essentially as described in Van Snick et al. PNAS; 83, :9679 (1986), which is hereby incorporated by reference in its entirety. 7TD1 cells are a murine hybridoma cell line formed by fusion of the mouse myeloma cell line Sp2/0-Ag14 with spleen cells from a C57BL/6 mouse immunized with Escherichia coli lipopolysaccharides three days before fusion. The 7TD1 cell line is dependent on IL-6 for its growth and IL-6 withdrawal leads to cell death by apoptosis.
Briefly, 7TD1 cells (7.10E3) were incubated for 2-4 h in RPMI1640 medium+10% FCS before addition of IL-6 (75 pg/ml final concentration) in microtiter plates (200 ul final volume). The cells were incubated 3 days at 37C, before washing with PBS and addition of 60 ul of substrate solution (p-nitrophenyl-N-acetyl-β-D-glucosaminide (Sigma N-9376); 7.5 mM substrate in 0.05 M NaCitrate pH 5; 0.25 vol % triton X-100) for 4 h. The enzymatic reaction was stopped with 90 ul of stop solution (100 mM glycine+10 mM EDTA pH 10.4) and OD at 405 nm measured.
The VH and VL of the germlined versions of 68F2 were recloned in pUPE Heavy Chain and Light Chain expression vectors, respectively, for transient expression of full-length IgG1 antibodies. After transient expression in HEK293E cells, IgG1 antibodies were purified with protein A and quantified by measurement of OD280. Table 19 below summarizes the production levels of the germlined derivatives together with the levels of the 68F2 parental antibody. Potencies (in pM) were also measured in a 7TD1 based proliferation assay for each antibody.

Assay [2] concerns the target T1, human IL-6. The experiment in a line: IL-6 neutralizing bioassay, B9 cell proliferation ([3H]thymidine). To be noted: B9 cells; relative to 68F2 average IC50. In kind it is cell-based. Here is the method:
The in vitro efficacy of clones 129D3, 68F2, 61H7, 133A9, 133H2, 133E5 and 132E7 were determined using a cell-based neutralizing bioassay using the B9 cell line, essentially as described in Helle et al. 1988, Eur. J. Immunol 18; 1535-1540. B9 cells are derived from the murine B cell hybridoma cell line B13.29, which require IL-6 for survival and proliferation and respond to very low concentrations of human IL-6. […] B9 cells were seeded in IL-6-free medium at 5000 cells/200 microl in flat-bottom wells in the presence of IL-6, with and without antibodies. Proliferation was measured by a [3H]thymidine pulse at 64-72 h.

Assay [3] deals with biotinylated (prokaryotic) IL-6 (Homo sapiens, UniProt P05231). The experiment in a line: Surface plasmon resonance (Biacore), biotinylated IL-6 captured on streptavidin sensor chip. Type of assay: binding. To be noted: purified Fab. As for the experimental part: (§1) The binding kinetics of IL-6-specific Fabs that were able to cross-compete with the B-E8 antibody was assessed using surface plasmon resonance (Biacore). Specifically, biotinylated (prokaryotic) IL-6 was captured on a streptavidin biacore sensor chip (CM5-SA) and different concentrations of purified Fabs were injected during 3 minutes following by a 5 minute wash with buffer. From the washing phase the off-rate (kd) was determined, while from the injection phase the on-rate (ka) was calculated using the concentration and off-rate as parameters. […] The binding kinetics of antagonistic purified Fabs (Table 3) and periplasmic fractions of Fab-expressing bacteria (Table 4) were also evaluated by surface plasmon resonance (Biacore) using both bacterially and eukaryotically produced human IL-6 directly coated on a CM5 chip. The Fabs tested had off-rates between 6×10^−4 and 2×10^−5 s^−1.
biotinylated (prokaryotic) IL-6, sequence (P05231 30-212): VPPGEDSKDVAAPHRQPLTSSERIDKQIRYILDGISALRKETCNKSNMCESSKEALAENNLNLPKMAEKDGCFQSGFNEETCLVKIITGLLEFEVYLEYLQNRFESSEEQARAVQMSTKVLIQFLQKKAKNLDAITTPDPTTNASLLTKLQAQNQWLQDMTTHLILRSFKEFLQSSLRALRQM
For orientation: Surface plasmon resonance follows binding to a sensor surface in real time, without labels.

The target of assay [4] is T2, eukaryotically produced human IL-6 (Homo sapiens, UniProt P05231).
T2 construct: purchased Humanzyme HZ-1044; host or cells: Human Embryonic kidney cells
T2 sequence (P05231 30-212): as above
The experiment in a line: Surface plasmon resonance (Biacore), eukaryotically produced human IL-6 coated on CM5 chip. In kind it is binding. Here is the method:
as §1
(§2) VL chain shuffling was used to improve the affinity of the Fabs 17F10, 18C7, 18C9, 18C11, 20A4, 29B11, 16D2 and 28A6. In this method, the heavy chain of these clones (as a VHCH1 fragment) was reintroduced into the primary phagemid-light chain library (see Example 1). Affinity selections were performed to select for chain shuffled Fabs with an improved affinity for IL-6. The binding kinetics of chain shuffled Fabs were evaluated by surface plasmon resonance (Biacore) using both bacterially and eukaryotically produced human IL-6, and cynomolgus monkey IL-6 (Tables 5-7). The VH and VL amino acid sequences of exemplary IL-6-specific Fabs selected by the VL chain shuffling method are set forth in Table 14 below.
(§3) VH chain shuffling was also used to improve the affinity of the Fab 24D10. In this method, the light chain of 24D10 was reintroduced into the primary phagemid-heavy chain library (see Example 1) and selected using an off-rate assay. In this type of selection, the phage were allowed to bind to antigen on a substrate for 1.5 to 2 hours. At round 2, after 15 washes with PBS-Tween, an additional wash was performed with the presence of excess soluble IL-6. […] This procedure avoids re-binding of such phage to the coated target. […] The binding kinetics of chain shuffled Fabs and the benchmark antibodies, BE8 and GL18, were evaluated by surface plasmon resonance (Biacore) using both bacterially and eukaryotically produced human IL-6 (Tables 8 and 9). The VH and VL amino acid sequences of exemplary IL-6-specific Fabs selected by the VH chain shuffling method are set forth in Table 14 below. […]

For assay [5], the target named is T3, bacterially produced human IL-6 (Homo sapiens, UniProt P05231).
T3 construct: His
T3 sequence (P05231 30-212): as above
The experiment in a line: Surface plasmon resonance (Biacore), bacterially produced human IL-6 coated on CM5 chip. Type of assay: binding. Here is the method: as §1, §2, §3

Another assay has as its target T4, cynomolgus monkey IL-6 (Macaca fascicularis, UniProt P79341).
T4 construct: His
The experiment in a line: Surface plasmon resonance (Biacore), cynomolgus monkey IL-6. Type of assay: binding. As for the experimental part:
as §2

[6] abbreviates: euk, periplasmic fractions, 29B11 chain shuffled.
Setting [7] is: bact, periplasmic fractions, 29B11 chain shuffled.
Setting [8] is: cy/cyno, periplasmic fractions, 29B11 chain shuffled.

T4 sequence (P79341 28-212): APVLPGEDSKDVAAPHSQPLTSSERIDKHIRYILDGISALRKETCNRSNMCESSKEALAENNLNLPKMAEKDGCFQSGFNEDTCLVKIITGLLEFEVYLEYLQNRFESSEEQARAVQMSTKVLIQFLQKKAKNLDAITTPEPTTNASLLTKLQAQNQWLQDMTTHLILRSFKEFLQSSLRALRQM
T1 sequence (P05231 30-212): as the sequence (P05231 30-212) above

B1: 129D3 (17.06) (antibody, V domains shown)
VH: EVQLQESGPGLVKPSQTLSLTCTVSGGSITSRYYAWSWIRQPPGKGLEWIGVIDYDGDTYYSPSLKSRVSISWDTSKNQFSLKLSSVTPADTAVYYCARDPDVVTGFHYDYWGQGTMVTVSS
VL: QSALTQPPSVSGTPGQSVTISCAGANNDIGTYAYVSWYQQLPGTAPKLMIYKVTTRASGIPDRFSGSKSGNTASLTISGLQAEDEADYYCASYRNFNNAVFGTGTKLTVL
Consider B1, for which the “Rel. Potency” value with human IL-6 [1] (Exp 22.06 (7TD1)) is 1.02.

B2: 127E2 (24.06) (antibody, V domains shown)
VH: EVQLQESGPGLVKPSQTLSLTCTVSGGSITTRYYAWSWIRQPPGKGLEWIGVIDYDGDTYYSPSLKSRVTISVDTSKNQFSLQLSSVTAEDTAVYYCARDPDVVTGFHYDYWGQGTQVTVSS
VL: QSALTQPPSVSGSPGQTVTISCAGANNDIGTYAYVSWYQQPPGTAPKLLIYKVTTRASGVPDRFSGSKSGNTASLTISGLQAEDEADYYCASYRNFNNAVFGGGTHLTVL
B2: in the assay with human IL-6 [1] (Exp 22.06 (7TD1)), the “Rel. Potency” value is reported as 0.58.

B3: 68F2 (Large batch) (antibody, V domains shown)
VH: EVQLQESGPGLVKPSQTLSLTCTVSGGSITTRYYAWSWIRQPPGKGLEWMGVIDYDGDTYYSPSLKSRTSISWDTSKNQFSLQLSSVTPEDTAVYYCARDPDVVTGFHYDYWGQGTQVTVSS
VL: QSALTQPPLVSGTPGQTVTISCAGANNDIGTYAYVSWYQQLPGTAPKLLIYKVTTRASGIPSRFSGSKSGNTASLTISGLQSEDEADYYCASYRNFNNAVFGRGTHLTVLG
In the case of B3, the “Rel. Potency” value with human IL-6 [1] (Exp 29.06 (7TD1)) is 0.43.

B4: 68F2 (12.9) (antibody, V domains shown)
VH: EVQLQESGPGLVKPSQTLSLTCTVSGGSITTRYYAWSWIRQPPGKGLEWMGVIDYDGDTYYSPSLKSRTSISWDTSKNQFSLQLSSVTPEDTAVYYCARDPDVVTGFHYDYWGQGTQVTVSS
VL: QSALTQPPLVSGTPGQTVTISCAGANNDIGTYAYVSWYQQLPGTAPKLLIYKVTTRASGIPSRFSGSKSGNTASLTISGLQSEDEADYYCASYRNFNNAVFGRGTHLTVLG
In turn, B4 showed a Rel. Potency in the assay with human IL-6 [2] of 0.8.

B5: 68F2 (#12.9) (antibody, V domains shown)
VH: EVQLQESGPGLVKPSQTLSLTCTVSGGSITTRYYAWSWIRQPPGKGLEWMGVIDYDGDTYYSPSLKSRTSISWDTSKNQFSLQLSSVTPEDTAVYYCARDPDVVTGFHYDYWGQGTQVTVSS
VL: QSALTQPPLVSGTPGQTVTISCAGANNDIGTYAYVSWYQQLPGTAPKLLIYKVTTRASGIPSRFSGSKSGNTASLTISGLQSEDEADYYCASYRNFNNAVFGRGTHLTVLG
For the molecule B5, the “Rel. Potency” value turned out to be 0.93 in the assay with human IL-6 [1] (Exp 7.07 (7TD1)) and 1.08 with human IL-6 [1] (Exp 29.06 (7TD1)).

B6: 128G3 (17.06) (antibody, V domains shown)
VH: EVQLQESGPGLVKPSQTLSLTCTVSGGSITTRYYAWSWIRQPPGKGLEWIGVIDYDGDTYYSPSLKSRTTISVDTSKNQFSLKLSSVTPEDTAVYYCARDPDVVTGFHYDYWGQGTMVTVSS
VL: QSALTQPPSVSGAPGQTVTISCAGANNDIGTYAYVSWYQQLPGTAPKLLIYKVTTRASGVPDRFSGSKSGNTASLAISGLQAEDEADYYCASYRNFNNAVFGGGTHLTVL
Consider B6, for which the results for the “Rel. Potency” value in the assay with human IL-6 [1] (Exp 22.06 (7TD1)) and in the assay with human IL-6 [1] (Exp 29.06 (7TD1)) were 0.60 and 0.52, respectively.

B7: 127E2 (17.06) (antibody, V domains shown)
VH: EVQLQESGPGLVKPSQTLSLTCTVSGGSITTRYYAWSWIRQPPGKGLEWIGVIDYDGDTYYSPSLKSRVTISVDTSKNQFSLQLSSVTAEDTAVYYCARDPDVVTGFHYDYWGQGTQVTVSS
VL: QSALTQPPSVSGSPGQTVTISCAGANNDIGTYAYVSWYQQPPGTAPKLLIYKVTTRASGVPDRFSGSKSGNTASLTISGLQAEDEADYYCASYRNFNNAVFGGGTHLTVL
Regarding B7, the “Rel. Potency” value in the assay with human IL-6 [1] (Exp 29.06 (7TD1)) is given as 0.37.

B8: 129F2 (17.06) (antibody, V domains shown)
VH: EVQLQESGPGLVKPSQTLSLTCTVSGGSITSRYYAWSWIRQPPGKGLEWIGVIDYDGDTYYSPSLKSRVTISWDTSKNQFSLKLSSVTAEDTAVYYCARDPDVVTGFHYDYWGQGTMVTVSS
VL: QSALTQPPSVSGTPGQTVTISCAGANNDIGTYAYVSWYQQLPGTAPKLMIYKVTTRASGIPDRFSGSKSGNTASLTISGLQSEDEADYYCASYRNFNNAVFGGGTKLTVL
As to B8, the “Rel. Potency” value in the assay with human IL-6 [1] (Exp 22.06 (7TD1)) is given as 1.14.

B9: 18C7: antagonistic IL-6-specific Fab clone from immunized llama (antibody, listed as Lama glama, V domains shown)
VH: EVQLVESGPGLVKPSQTLSLTCTVSGGSITASFDAWSWIRQPPGKGLEWMGVIAYDGSTYYSPSLKSRTSISRDTSKNQFSLQLSSVTPEDTAVYYCARKSSWLIGYGMDYWGKGTLVTVSS
VL: QAGLTQPSALSVTLGQTAKITCQGGSLGSSYAHWYQQKPGQAPVLVIYDDDSRPSGIPERFSGSSSGGRATLTISGAQAEDEGDYYCQSADSSGNAAVFGGGTHLTVLG
In assay [3], B9 gave a KA of 5.7e+07 M⁻¹, an Rmax of 43.9 RU, a ka of 105000 M⁻¹ s⁻¹ and a kd of 0.00185 s⁻¹. Also, in assay [4] (purified chain-shuffled Fabs), the “Koff eukIL-6” value was 0.001 s⁻¹ and 0.00082 s⁻¹. The “Koff HIS-huIL-6” value in assay [5] (purified chain-shuffled Fabs) was found to be 0.0011 s⁻¹. Moreover, the “Koff HIS-cyIL-6” value with cynomolgus monkey IL-6 (purified chain-shuffled Fabs) was 0.00063 s⁻¹ and 0.00069 s⁻¹.

B10: 29B11: antagonistic IL-6-specific Fab clone from immunized llama (antibody, listed as Lama glama, V domains shown)
VH: EVQLVESGGGLVQPGGSLRLSCAASGFTFSSYAMSWVRQAPGKGLEWVSRISSGGISTYYADSVKGRFTISRDNAKNTLYLQMNSLKPEDTAVYYCVRYAWGVQWAFDFWGQGTQVTVSS
VL: QSVLTQPPSVSGSPGQTVTISCAGTSEDVGYGNYVSWYQQLPGMAPKLLIYDVNKRASGIADRFSGSKSGNTASLTISGLQSEDEADYYCASYRRTIDNIFGGGTHLTVLG
In assay [3], B10 came in with a KA of 4.36e+07 M⁻¹, an Rmax of 23.3 RU, a ka of 130000 M⁻¹ s⁻¹ and a kd of 0.00298 s⁻¹. In assay [4] (setting [6]), this molecule had a KA of 1.83e+09 M⁻¹, a ka of 187000 M⁻¹ s⁻¹ and a kd of 0.000102 s⁻¹. In assay [5] (setting [7]), this molecule showed a KA of 1.91e+09 M⁻¹, a ka of 251000 M⁻¹ s⁻¹ and a kd of 0.000131 s⁻¹. Also, in the assay with cynomolgus monkey IL-6 (setting [8]), the KA came out at 1.51e+08 M⁻¹, the ka was 113000 M⁻¹ s⁻¹ and the kd is 0.000746 s⁻¹.
